These results are taken from patent publication US20240158517A1 (HIFIBIO HK, published 2024).

Test [1] deals with T1, human CXCR3 (human, UniProt P49682 1-368, limits assumed).
T1 construct: also called hCXCR3
T1 sequence (looked up): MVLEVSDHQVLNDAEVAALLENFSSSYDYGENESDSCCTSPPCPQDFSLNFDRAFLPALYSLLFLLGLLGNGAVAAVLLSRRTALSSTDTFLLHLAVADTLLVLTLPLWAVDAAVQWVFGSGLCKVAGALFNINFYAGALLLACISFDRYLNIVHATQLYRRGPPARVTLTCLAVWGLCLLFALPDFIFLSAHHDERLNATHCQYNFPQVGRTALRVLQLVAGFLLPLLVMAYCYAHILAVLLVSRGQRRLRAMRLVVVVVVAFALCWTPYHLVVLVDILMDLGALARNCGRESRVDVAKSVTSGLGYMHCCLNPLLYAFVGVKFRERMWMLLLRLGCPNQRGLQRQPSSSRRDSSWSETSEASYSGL
Nature of the test: flow cytometry (MFI) on hCXCR3.

For test [2], the target named is T2, murine CXCR5 (mouse, UniProt Q04683 1-374).
T2 construct: whole, on cells; also called mouse CXCR5 ortholog
T2 sequence (looked up): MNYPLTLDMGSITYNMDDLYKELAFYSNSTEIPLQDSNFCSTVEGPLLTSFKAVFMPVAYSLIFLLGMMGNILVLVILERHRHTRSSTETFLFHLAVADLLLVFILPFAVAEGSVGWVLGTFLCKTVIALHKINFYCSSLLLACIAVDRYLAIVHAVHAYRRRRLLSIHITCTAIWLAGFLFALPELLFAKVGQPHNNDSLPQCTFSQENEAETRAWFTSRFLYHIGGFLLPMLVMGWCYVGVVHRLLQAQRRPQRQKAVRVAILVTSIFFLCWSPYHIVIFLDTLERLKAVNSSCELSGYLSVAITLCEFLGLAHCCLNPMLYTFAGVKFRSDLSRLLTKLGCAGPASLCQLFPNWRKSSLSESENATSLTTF
Briefly: flow cytometry on cells transiently transfected with murine CXCR5.

Test [3] addresses T3, cynomolgus CXCR5 (cynomolgus monkey, UniProt G8F5K4 1-372).
T3 construct: whole, on cells; also called monkey CXCR5 ortholog
T3 sequence: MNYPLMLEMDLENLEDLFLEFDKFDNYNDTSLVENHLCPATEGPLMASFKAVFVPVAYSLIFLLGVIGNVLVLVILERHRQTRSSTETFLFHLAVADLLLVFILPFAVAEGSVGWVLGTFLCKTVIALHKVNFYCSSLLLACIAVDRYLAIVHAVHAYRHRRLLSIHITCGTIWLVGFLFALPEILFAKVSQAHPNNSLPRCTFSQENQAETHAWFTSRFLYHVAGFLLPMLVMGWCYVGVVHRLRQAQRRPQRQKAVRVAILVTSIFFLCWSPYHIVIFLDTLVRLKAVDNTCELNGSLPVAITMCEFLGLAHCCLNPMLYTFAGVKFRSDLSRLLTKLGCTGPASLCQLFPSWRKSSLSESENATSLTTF
Briefly: flow cytometry on cells transiently transfected with cynomolgus CXCR5.

Test [4] addresses T4, human CXCR5 (human, UniProt P32302 1-372).
T4 construct: whole, on cells; Always presented on cells; one entry is used for all cell lines; also called hCXCR5; C-X-C chemokine receptor type 5
T4 sequence (looked up): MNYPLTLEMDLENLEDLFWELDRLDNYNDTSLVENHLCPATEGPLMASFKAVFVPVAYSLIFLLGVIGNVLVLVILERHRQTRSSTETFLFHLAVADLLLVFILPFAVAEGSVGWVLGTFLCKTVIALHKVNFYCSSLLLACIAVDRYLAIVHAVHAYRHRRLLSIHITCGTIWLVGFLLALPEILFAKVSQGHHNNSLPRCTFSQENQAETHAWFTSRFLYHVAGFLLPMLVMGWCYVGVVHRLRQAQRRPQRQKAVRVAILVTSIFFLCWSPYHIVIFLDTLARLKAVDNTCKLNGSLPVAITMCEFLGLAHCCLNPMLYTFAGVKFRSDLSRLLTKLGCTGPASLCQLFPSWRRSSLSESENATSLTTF
Briefly: flow cytometry on an adherent stable cell line expressing hCXCR5, MFI normalized on the benchmark MFI.
Procedure: In order to test the binding capacity to CXCR5, six chimeric monoclonal antibodies were tested in binding assay using adherent stable cell line expressing the target antigen hCXCR5.

The target of test [5] is T4, human CXCR5. Briefly: flow cytometry on DX002 cells expressing CXCR5, MFI. For orientation: A flow cytometer gives signals particle by particle.
For test [6], the target named is T4, human CXCR5. Nature of the test: binding to DX002 cells expressing CXCR5.
Test [7] addresses T4, human CXCR5. Briefly: flow cytometry on adherent DX002 cells expressing CXCR5, MFI.
Test [8] addresses T4, human CXCR5. Briefly: flow cytometry on CXCR5+ Raji cells, MFI.
Test [9] deals with T4, human CXCR5.
The target in test [10] is CD16 (UniProt P08637 17-254, limits assumed). Briefly: cell-based or functional assay.
The target in test [11] is T4, human CXCR5. Briefly: binding to hCXCR5, Exp 1 (assay not given).
In test [12] the target is T4, human CXCR5. Nature of the test: binding to hCXCR5, Exp 2 (assay not given).
Test [13] concerns the target T4, human CXCR5. Briefly: cell-based or functional assay.
Test [14] deals with T1, human CXCR3. Nature of the test: specificity assay by flow cytometry.
In test [15] the target is T2, murine CXCR5. Nature of the test: flow cytometry, transiently transfected cells.

Where two headings read alike, the source gives them in different places.

Chain of CD16 (P08637 17-254 limits assumed): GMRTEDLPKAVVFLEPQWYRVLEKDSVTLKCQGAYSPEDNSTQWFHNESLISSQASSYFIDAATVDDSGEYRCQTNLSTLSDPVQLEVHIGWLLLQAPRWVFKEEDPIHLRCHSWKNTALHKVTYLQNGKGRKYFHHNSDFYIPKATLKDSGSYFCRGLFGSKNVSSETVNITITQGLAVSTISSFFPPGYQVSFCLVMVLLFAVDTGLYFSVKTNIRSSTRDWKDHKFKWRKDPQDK

B1: HFB2-1-hG1 (antibody, V domains shown)
VH: EVKLEESGGGLVQPGGSMKLSCVASGFTFSNYWMNWVRQSPEKGLEWVAQIRLKSDNYATHYTESVKGRFTISRDDSKSSVYLQMNNLRAEDTGIYYCTPPNFDYWGQGTTLTVSS
VL: DIVMTQAAPSVTVTPGESVTISCRSTTSLLHRSGKHKFYWFLQRPGQSPQLLIYYVSNLASGVPDRFSGSGSGTDFTLRISRVEAEDFGVYYCMQSLEFPLTFGTGTKLEIK
notes: Mouse-human chimeric antibody: murine VH and VL on the human IgG1 constant region
In the case of B1, the binding result in test [1], in test [2] and in [3] was “no binding (tested: about 150 nM)” each time. Moreover, the midpoint of the response in test [4], the EC50, lay at 481 pM.

B2: HFB2-2-hG1 (antibody, V domains shown)
VH: EVQLVETGGGLVQPKGSLKLSCAASGFTFNTNAMNWVRQAPGKGLEWVARIRSKSNNYATHYVDSVKDRFTISRDDSQSMLYLQMNNLKTEDTAMYYCVSWDPFAYWGQGTLVTVSA
VL: NIMMTQSPSSLAVSAGEKVTMSCKSSQSVLYSSNQKNYLAWYQQKPGQSPKLLIYWASTRASGVPDRFTGSGSGTDFTLTISSVQTEDLAVYYCHQYLSSWTFGGGAKLEIK
notes: Mouse-human chimeric antibody, human IgG1 constant region
With B2, the binding result in test [1], in [2] and in test [3] was “no binding (tested: about 150 nM)” throughout. Besides, the 50% effective concentration (EC50) in test [4] came to 482 pM.

B3: afucosylated HFB2-4hz42-hG1 (antibody, V domains shown)
VH: QVQLVQSGAEVKKPGASVKVSCKASGFSLTSYGVSWVRQAPGQGLEWMGVIWGDGSTNYAQKLQGRVTMTKDTSTSTAYMELRSLRSDDTAVYYCARVVYWGQGTLVTVSS
VL: EIVMTQSPATLSVSPGERATLSCRSSKSLLHSNGKTYLYWFQQKPGQAPRLLIYRMSNLASGIPARFSGSGSGTEFTLTISSVQSEDVAVYYCMQHLEYPYTFGQGTKLEIK
modifications: afucosylated (no core fucose on the Fc N-glycan of the heavy chain)
notes: Afucosylated format of humanized HFB2-4hz42-hG1 (human IgG1); also called afu-HFB2-4hz42-hG1; Afu-HFB2-4hz42-hG1
In [5], B3 yielded an EC50 of 820 pM.

B4: HFB2-4hz42hG1DE (antibody, V domains shown)
VH: QVQLVQSGAEVKKPGASVKVSCKASGFSLTSYGVSWVRQAPGQGLEWMGVIWGDGSTNYAQKLQGRVTMTKDTSTSTAYMELRSLRSDDTAVYYCARVVYWGQGTLVTVSS
VL: EIVMTQSPATLSVSPGERATLSCRSSKSLLHSNGKTYLYWFQQKPGQAPRLLIYRMSNLASGIPARFSGSGSGTEFTLTISSVQSEDVAVYYCMQHLEYPYTFGQGTKLEIK
notes: Humanized (VH10/VL6) in hG1DE format
As to B4, the EC50 in test [6] came to 171 pM; in test [7], 123 pM.

B5: HFB2-4hz42hG1 (antibody, V domains shown)
VH: QVQLVQSGAEVKKPGASVKVSCKASGFSLTSYGVSWVRQAPGQGLEWMGVIWGDGSTNYAQKLQGRVTMTKDTSTSTAYMELRSLRSDDTAVYYCARVVYWGQGTLVTVSS
VL: EIVMTQSPATLSVSPGERATLSCRSSKSLLHSNGKTYLYWFQQKPGQAPRLLIYRMSNLASGIPARFSGSGSGTEFTLTISSVQSEDVAVYYCMQHLEYPYTFGQGTKLEIK
notes: Humanized, human IgG1 (hG1); also called HFB2-VH10VL6
With B5, the “EC50 (read off the curve)” value in [8] was approximately 300 pM.

B6: HFB2-3-hG1 (antibody, V domains shown)
VH: QVQLKQSGPGLVQPSQSLSITCTVSGFSLTSYGVHWVRQSPGKGLEWLGVTWSGGRTDYNAAFISRLSINKDNSKSQVFFKMNSLQVNDTAIYYCARGGNYWGQGTSVTVSS
VL: not shown
notes: as for B2
As to B6, the midpoint of the response in test [9], the EC50, lay at 569 pM. Also, the binding result in [1], in test [2] and in [3] was “no binding (tested: about 150 nM)” each time.

B7: HFB2-4hz9-hG1DE (antibody, V domains shown)
VH: QVQLQESGPGLVKPSETLSLTCTVSGFSLTSYGVSWVRQPPGKGLEWIGVIWGDGSTNYNPSLKSRVTISKDTSKNQVSLKLSSVTAADTAVYYCARVVYWGQGTLVTVSS
VL: DIVMTQSPLSLPVTPGEPASISCRSSKSLLHSNGKTYLYWFLQKPGQSPQLLIYRMSNLASGVPDRFSGSGSGTDFTLKISRVEAEDVGVYYCMQHLEYPYTFGGGTKVEIK
notes: Humanized (VH3/VL1), human IgG1 constant region with S239D/I332E (hG1DE)
On to B7, for which the “ADCC activity, EC50” value in test [10] was in the range of 1 to 2 pM. Besides, the EC50 in [11] is 1300 pM; in test [12] it was 1000 pM.

B8: HFB2-4hG1DE (antibody, V domains shown)
VH: QVQLKESGPGLVAPSQSLSITCTVSGFSLTSYGVSWVRQPPGKGLEWLGVIWGDGSTNYHSGLISRLSISKDNSKSQVFLKLNSLQSDDTATYYCARVVYWGQGTLVTVSA
VL: DIVMTQAAPSVPVTPGESISISCRSSKSLLHSNGKTYLYWFLQRPGQSPQLLLYRMSNLASGVPDRFSGSGSGTAFTLRISRVEAEDVGVYYCMQHLEYPYTFGGGTKLEIK
notes: Chimeric HFB2-4 in the DE scaffold: human IgG1 constant region with S239D/I332E; also called HFB2-4DE
On to B8, for which the “ADCC lysis of Raji cells by primary NK cells, EC50” value in test [13] came to 0.76 pM. In addition, the “ADCC lysis of peripheral primary B cells by primary NK cells, EC50” value in test [13] is 0.00044 pM. The EC50 is 186 pM in [6], 1000 pM in [11], 1300 pM in [12] and 112 pM in [7].

B9: afucosylated HFB2-4hG1 (antibody, V domains shown)
VH: QVQLKESGPGLVAPSQSLSITCTVSGFSLTSYGVSWVRQPPGKGLEWLGVIWGDGSTNYHSGLISRLSISKDNSKSQVFLKLNSLQSDDTATYYCARVVYWGQGTLVTVSA
VL: DIVMTQAAPSVPVTPGESISISCRSSKSLLHSNGKTYLYWFLQRPGQSPQLLLYRMSNLASGVPDRFSGSGSGTAFTLRISRVEAEDVGVYYCMQHLEYPYTFGGGTKLEIK
modifications: afucosylated (no core fucose on the Fc N-glycan of the heavy chain)
notes: Afucosylated format of the chimeric HFB2-4hG1 (human IgG1, no DE mutation); also called afu-HFB2-4hG1; AfuHFB2-4hG1
In turn, B9 registered a half-maximal effective concentration (EC50) in [5] of 810 pM.

B10: HFB2-5-hG1 (antibody, V domains shown)
VH: QVQLKESGPGLVAPSQSLSITCTVSGFSLTSYGVSWVRQPPGKGLEWLGVIWGDGSTNYHSTLISRLSISKDNSKSQVFLKLNSLQTDDTATYYCARVAYWGQGTLVTVSA
VL: DIVMTQAAPSIPVTPGESVSISCRSSKSLLHSNGKTYLYWFLQRPGQSPQLLIYRMSNLASGVPDRFSGSGSGTAFTLRISRVEAEDVGVYYCMQHLEYPYTFGGGTKLEIK
notes: as for B2
B10: the figures for the binding result in test [14], in test [15] and in test [3] were “no binding”, “no binding” and “no binding (tested: about 150 nM)”, respectively. In addition, in test [4], a half-maximal effect (EC50) was put at 3430 pM.

A word on the EC50: it is the concentration at which the effect is half-maximal. Read a high EC50 as a need for much substance. The term EC50 (read off the curve) denotes the concentration that produces a half-maximal response.
